The target of one assay is 53BP1 fragment (a.a. 1221-1718) fused to an adenylate cyclase fragment (two-hybrid) (UniProt Q12888).
Test: not given
Consider “i53-adenylate cyclase fragment fusion protein (two-hybrid) (designed binder)”, for which the percent GFP-positive E. coli cells, two-hybrid reporter, gate P5 was determined as 9%.
For i53-DM (designed binder), the % GFP+ came to 0.1% and the percent GFP-positive E. coli cells, two-hybrid reporter, gate P5 was 0.1%.

The next assay shares this target. As to the kind of experiment: cell-based or functional assay.
“i53-adenylate cyclase fragment fusion protein (two-hybrid) (designed binder)” had a GFP positive population, high selection pressure of 3%; a GFP positive population, low selection pressure of 17%; a Percent GFP Positive Rep 1 of 9%; a Percent GFP Positive Rep 2 of 7.6%. The Percent GFP Positive Rep 3 was determined as 11.8%.
Turning to “i53 + M1R two-hybrid fusion (designed binder)”, the Experiment 1 Average Enrichment was 0.1 log2, the Experiment 1 Rep 1 Enrichment was -0.01 log2, the Experiment 1 Rep 2 Enrichment worked out at 0.22 log2 and the Experiment 2 Average Enrichment was 0.21 log2. The Experiment 2 Rep 1 Enrichment was found to be 0.11 log2 and the Experiment 2 Rep 2 Enrichment worked out at 0.3 log2.
As to “i53 + S49E two-hybrid fusion (designed binder)”, the Experiment 1 Average Enrichment came to 0.44 log2, the Experiment 1 Rep 1 Enrichment worked out at 0.84 log2, the Experiment 1 Rep 2 Enrichment came to 0.04 log2 and the Experiment 2 Average Enrichment was determined as 0.81 log2. The substance further registered an Experiment 2 Rep 1 Enrichment of 0.96 log2 and an Experiment 2 Rep 2 Enrichment of 0.67 log2.
“i53 + P38Q two-hybrid fusion (designed binder)”: the Experiment 1 Average Enrichment was -0.25 log2, the Experiment 1 Rep 1 Enrichment came to 0.85 log2, the Experiment 1 Rep 2 Enrichment was -1.35 log2 and the Experiment 2 Average Enrichment was 0.5 log2. The Experiment 2 Rep 1 Enrichment was determined as 1.18 log2 and the Experiment 2 Rep 2 Enrichment was -0.17 log2.
For “i53 + P38S two-hybrid fusion (designed binder)”, the Experiment 1 Average Enrichment was 0.22 log2, the Experiment 1 Rep 1 Enrichment came out at 0.19 log2, the Experiment 1 Rep 2 Enrichment came out at 0.25 log2 and the Experiment 2 Average Enrichment was 0.27 log2. Besides, the Experiment 2 Rep 1 Enrichment turned out to be 0.56 log2 and the Experiment 2 Rep 2 Enrichment was -0.02 log2.
In turn, “i53 + D39L two-hybrid fusion (designed binder)” returned an Experiment 1 Average Enrichment of 0.06 log2, an Experiment 1 Rep 1 Enrichment of 0.49 log2, an Experiment 1 Rep 2 Enrichment of -0.38 log2 and an Experiment 2 Average Enrichment of -2.16 log2. The Experiment 2 Rep 1 Enrichment was -2.9 log2 and the Experiment 2 Rep 2 Enrichment was -1.42 log2.
“i53 + N25L two-hybrid fusion (designed binder)” displayed an Experiment 1 Average Enrichment of 0.43 log2, an Experiment 1 Rep 1 Enrichment of 0.47 log2, an Experiment 1 Rep 2 Enrichment of 0.39 log2 and an Experiment 2 Average Enrichment of 0.23 log2. The substance also showed an Experiment 2 Rep 1 Enrichment of 0.26 log2 and an Experiment 2 Rep 2 Enrichment of 0.19 log2.
“i53 + D32A two-hybrid fusion (designed binder)” came in with an Experiment 1 Average Enrichment of 0.11 log2, an Experiment 1 Rep 1 Enrichment of 0.2 log2, an Experiment 1 Rep 2 Enrichment of 0.02 log2 and an Experiment 2 Average Enrichment of 0.19 log2. This substance came in with an Experiment 2 Rep 1 Enrichment of 0.19 log2 and an Experiment 2 Rep 2 Enrichment of 0.19 log2.
Regarding “i53 + P38K two-hybrid fusion (designed binder)”, the Experiment 1 Average Enrichment was -1.02 log2, the Experiment 1 Rep 1 Enrichment is -2.14 log2, the Experiment 1 Rep 2 Enrichment was found to be 0.1 log2 and the Experiment 2 Average Enrichment turned out to be 0.25 log2. The same substance returned an Experiment 2 Rep 1 Enrichment of -0.61 log2 and an Experiment 2 Rep 2 Enrichment of 1.11 log2.
“i53 + A28M two-hybrid fusion (designed binder)” displayed an Experiment 1 Average Enrichment of 0.03 log2, an Experiment 1 Rep 1 Enrichment of 0.49 log2, an Experiment 1 Rep 2 Enrichment of -0.42 log2 and an Experiment 2 Average Enrichment of -0.19 log2. In addition, the Experiment 2 Rep 1 Enrichment is -0.51 log2 and the Experiment 2 Rep 2 Enrichment amounted to 0.12 log2.
“i53 + S20D two-hybrid fusion (designed binder)” registered an Experiment 1 Average Enrichment of -0.43 log2, an Experiment 1 Rep 1 Enrichment of -0.14 log2, an Experiment 1 Rep 2 Enrichment of -0.72 log2 and an Experiment 2 Average Enrichment of 0.5 log2. The Experiment 2 Rep 1 Enrichment is 0.83 log2 and the Experiment 2 Rep 2 Enrichment was determined as 0.18 log2.
In the case of “i53 + E16H two-hybrid fusion (designed binder)”, the Experiment 1 Average Enrichment came out at 0.03 log2, the Experiment 1 Rep 1 Enrichment worked out at 0 log2, the Experiment 1 Rep 2 Enrichment came to 0.05 log2 and the Experiment 2 Average Enrichment was -0.13 log2. This substance registered an Experiment 2 Rep 1 Enrichment of -0.21 log2 and an Experiment 2 Rep 2 Enrichment of -0.05 log2.
The substance “i53 + A28I two-hybrid fusion (designed binder)” yielded an Experiment 1 Average Enrichment of 0.05 log2, an Experiment 1 Rep 1 Enrichment of -0.45 log2, an Experiment 1 Rep 2 Enrichment of 0.56 log2 and an Experiment 2 Average Enrichment of 0.05 log2. Moreover, the Experiment 2 Rep 1 Enrichment is 0.37 log2 and the Experiment 2 Rep 2 Enrichment was -0.28 log2.
